Results published in the supplement of paper PMC7877785.
± gives the uncertainty stated by the source.

Experiment: self-splicing fitness, log relative to wild type (ln ratio); higher = more splicing; Tetrahymena group I intron in knt gene, E. coli kanamycin selection, DiMSum; sequences stand for … in CUCUCU…GGAGGGAAAAGUUAUCAGGCAUGCACCUGGUAGCUAGUCUUUAAACCAAUAGAUUGCAUCGGUUUAAAAGGCAAGACCGUCAAAUUGCGGGAAAGGGGUCAACAGCCGUUCAGUACCAAGUCUCAGGGGAAACUUUGAGAUGGCCUUGCAAAGGGUAUGGUAAUAAGCUGACGGACAUGGUCCUAACCACGCAGCCAAGUCCUAAGUCAACAGAUCUUCUGUUGAUAUGGAUGCAGUUCACAGACUAAAUGUCGGUCGGGGAAGAUGUAUUCUUCUCAUAAGAUAUAGUCGGACCUCUCCUUAAUGGGAGCUAGCGGAUGAAGUGAUGCAACACUGGAGCCGCUGGGAACUAAUUUGUAUGCGAAAGUAUAUUGAUUAGUUUUGGAGUACUCGUGGUCG
Method in brief: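 Six replicate transformations of E. coli BL21(DE3) with a pET-22b(+) library were grown overnight at 37°C or 30°C. The library randomised all eight P1ex-region intron nucleotides, the intron lying in the knt kanamycin-resistance gene, and plates were LB agar with or without 25 μg/mL kanamycin plus 100 μg/mL carbenicillin, 50 μM IPTG and 0.2% rhamnose. Pooled colonies were amplicon-sequenced on an Illumina HiSeq 2500, and fitness is the DiMSum error-weighted combination of wild-type-normalised replicate fold changes, kanamycin versus none.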

| Sequence | self-splicing fitness (ln) (30 °C) | self-splicing fitness (ln) (37 °C) |
| --- | --- | --- |
| GACGAGCAAUAUUACGUGUU | -3.18 ± 0.16 | -3.09 ± 0.19 |
| GACUAGCAAUAUUACGAACA | -1.02 ± 0.16 | -0.254 ± 0.17 |
| GACUAGCAAUAUUACGACCA | -0.781 ± 0.17 | 0.287 ± 0.18 |
| GACUAGCAAUAUUACGACCU | 0.114 ± 0.093 | -0.756 ± 0.095 |
| GACUAGCAAUAUUACGACUU | 0.355 ± 0.06 | 0.58 ± 0.08 |
| GACUAGCAAUAUUACGAGCG | -1.57 ± 0.1 | -0.592 ± 0.12 |
| GACUAGCAAUAUUACGCACU | -0.55 ± 0.11 | 0.415 ± 0.16 |
| GACUAGCAAUAUUACGCAGU | -3.21 ± 0.31 | -2.17 ± 0.2 |
| GACUAGCAAUAUUACGCCCA | -0.026 ± 0.17 | 0.443 ± 0.24 |
| GACUAGCAAUAUUACGCGCC | -2.11 ± 0.32 | -0.0214 ± 0.39 |
| GACUAGCAAUAUUACGGAUU | -0.975 ± 0.066 | -0.588 ± 0.092 |
| GACUAGCAAUAUUACGGGAG | -0.663 ± 0.096 | 0.0641 ± 0.12 |
| GACUAGCAAUAUUACGGGUU | -3.92 ± 0.24 | -2.74 ± 0.27 |
| GACUAGCAAUAUUACGGUAC | -2.1 ± 0.2 | -1.2 ± 0.18 |
| GACUAGCAAUAUUACGGUCG | -2.05 ± 0.09 | -0.165 ± 0.1 |
| GACUAGCAAUAUUACGGUUU | -1.7 ± 0.092 | -1.53 ± 0.11 |
| GACUAGCAAUAUUACGUAAG | -0.946 ± 0.087 | -0.709 ± 0.11 |
| GACUAGCAAUAUUACGUACU | -1.13 ± 0.094 | -0.372 ± 0.14 |
| GACUAGCAAUAUUACGUUGC | -2.56 ± 0.12 | -2.5 ± 0.2 |
| GACUAGCAAUAUUACGUUUC | -2.3 ± 0.12 | -2.84 ± 0.18 |
| GAGAAGCAAUAUUACGAAUU | -2.27 ± 0.14 | -1.13 ± 0.15 |
| GAGAAGCAAUAUUACGACCC | -1.83 ± 0.38 |  |
| GAGAAGCAAUAUUACGACGA | -0.554 ± 0.066 | -0.104 ± 0.09 |
| GAGAAGCAAUAUUACGAGAA | -2.75 ± 0.47 | -0.703 ± 0.35 |

| Sequence | self-splicing fitness (ln) (30 °C) | self-splicing fitness (ln) (37 °C) |
| --- | --- | --- |
| GAGAAGCAAUAUUACGAGGU | -3.47 ± 0.33 | -3.9 ± 0.46 |
| GAGAAGCAAUAUUACGAGUU | -1.95 ± 0.12 | -1.63 ± 0.13 |
| GAGAAGCAAUAUUACGAUCC | -1.9 ± 0.26 | -0.963 ± 0.43 |
| GAGAAGCAAUAUUACGAUUG | -2.76 ± 0.22 | -1.49 ± 0.23 |
| GAGAAGCAAUAUUACGCACG | -0.497 ± 0.14 | -0.392 ± 0.15 |
| GAGAAGCAAUAUUACGCCAA | -0.505 ± 0.27 | -2.17 ± 0.22 |
| GAGAAGCAAUAUUACGCCCA | -0.503 ± 0.2 | -0.351 ± 0.18 |
| GAGAAGCAAUAUUACGCGAU | -2.81 ± 0.27 | -2.48 ± 0.33 |
| GAGAAGCAAUAUUACGCGGA | -2.51 ± 0.22 | -1.39 ± 0.17 |
| GAGAAGCAAUAUUACGCUCA | -1.29 ± 0.16 | -1.13 ± 0.15 |
| GAGAAGCAAUAUUACGGAGC | -3.83 ± 0.4 | -1.84 ± 0.23 |
| GAGAAGCAAUAUUACGGAUC | -2.34 ± 0.34 | -1.97 ± 0.4 |
| GAGAAGCAAUAUUACGGAUU | -2.77 ± 0.11 | -1.63 ± 0.11 |
| GAGAAGCAAUAUUACGGCCA | -0.417 ± 0.16 | -0.286 ± 0.17 |
| GAGAAGCAAUAUUACGGGCG | -1.52 ± 0.14 | -0.609 ± 0.13 |
| GAGAAGCAAUAUUACGGGGG |  | -1.8 ± 0.47 |
| GAGAAGCAAUAUUACGGUAG | -3.75 ± 0.29 | -2.68 ± 0.24 |
| GAGAAGCAAUAUUACGGUGC | -2.81 ± 0.19 | 0.59 ± 0.21 |
| GAGAAGCAAUAUUACGGUUC | -2.91 ± 0.13 | -1.5 ± 0.13 |
| GAGAAGCAAUAUUACGGUUU | -1.07 ± 0.099 | -1.21 ± 0.14 |
| GAGAAGCAAUAUUACGUACU | 0.0719 ± 0.08 | 0.0321 ± 0.11 |
| GAGAAGCAAUAUUACGUCCG | -1.48 ± 0.091 | -0.864 ± 0.1 |
| GAGAAGCAAUAUUACGUCUG | -0.739 ± 0.13 | 0.277 ± 0.15 |
| GAGAAGCAAUAUUACGUGGG | -2.74 ± 0.14 | -2.29 ± 0.19 |
